Consider 6 molecules from patent publication WO2012175740A1 (dated 2012).

The target in experiment [1] is T1, human IgE (Diatec, Oslo, Norway) (human, UniProt P01854-1 1-428). As to the kind of experiment: cell-based or functional assay.
Experiment [2] deals with T2, cyno IgE c(epsilon)2-c(epsilon)3-c(epsilon)4 Fc fragment with C-terminal (His)10 tag (cynomolgus monkey).
T2 construct: Made in HEK-EBNA cells with the murine Ig kappa leader; Biotinylated in the Alphascreen; also called cyno IgE Fc; cyno IgE-Fc
T2 chain: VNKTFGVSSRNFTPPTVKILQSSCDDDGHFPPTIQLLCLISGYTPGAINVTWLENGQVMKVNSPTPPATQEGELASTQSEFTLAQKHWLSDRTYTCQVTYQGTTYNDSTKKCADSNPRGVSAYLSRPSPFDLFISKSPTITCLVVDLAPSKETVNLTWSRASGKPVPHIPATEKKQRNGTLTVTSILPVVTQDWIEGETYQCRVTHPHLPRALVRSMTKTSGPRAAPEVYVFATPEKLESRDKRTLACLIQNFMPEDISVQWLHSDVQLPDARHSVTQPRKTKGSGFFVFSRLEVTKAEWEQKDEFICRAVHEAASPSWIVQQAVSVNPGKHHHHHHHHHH
As to the kind of experiment: Alphascreen, competition with HuFc(epsilon)RI(alpha)Fc for cyno IgE Fc. A general note: In Alpha technology, singlet oxygen from a donor bead excites a nearby acceptor bead.

The target in experiment [3] is T1, human IgE (Diatec, Oslo, Norway). As to the kind of experiment: ELISA, competition with coated Fc(epsilon)RI for HuIgE. A general note: An ELISA detects its analyte on a solid surface through an enzyme-linked reagent.
Experiment [4] has the same target. The experiment is described as follows: ELISA, competition with coated Fc(epsilon)RII for HuIgE.

T1 sequence (P01854 other isoform, or with tags, fused parts or gaps): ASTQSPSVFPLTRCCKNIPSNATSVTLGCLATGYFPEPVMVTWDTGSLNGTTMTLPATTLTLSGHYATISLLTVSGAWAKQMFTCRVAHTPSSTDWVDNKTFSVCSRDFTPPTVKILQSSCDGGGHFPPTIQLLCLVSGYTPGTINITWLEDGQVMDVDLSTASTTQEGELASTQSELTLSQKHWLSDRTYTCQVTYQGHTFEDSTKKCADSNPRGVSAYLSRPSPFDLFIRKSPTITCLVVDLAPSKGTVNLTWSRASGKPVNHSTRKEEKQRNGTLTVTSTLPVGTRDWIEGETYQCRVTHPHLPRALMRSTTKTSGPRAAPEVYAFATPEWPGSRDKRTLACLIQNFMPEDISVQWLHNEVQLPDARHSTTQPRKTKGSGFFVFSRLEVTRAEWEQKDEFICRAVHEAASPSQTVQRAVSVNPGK

B1: Nanobody 39D11 (VHH)
VHH: EVQLVESGGGLVQPGGSLRLSCAASGFTFGSYDMSWVRQAPGKGPEWVSSIDTGGDITHYADSVKGRFTISRDNANNMLYLQMNSLKPEDTAVYWCATDEDYALGPNEYDYYGQGTQVTVSS
notes: not shown: C-terminal c-myc tag and His6 tag
As to B1, in experiment [1], the “block of degranulation at 500 nM Nanobody” value (from here on “block of degranulation”) is over 95%. Moreover, in experiment [2], the “% inhibition at 250 nM Nanobody” value amounted to 93.5% and the IC50 was found to be 0.119 nM. In addition, in experiment [3], the “% inhibition by 500 nM Nanobody” value is 99.5% and the half-maximal inhibitory concentration (IC50) is 0.511 nM.

B2: Nanobody 36G5 (VHH)
VHH: EVQLVESGGGLVQPGGSLRLSCVASGFTFGSYDMSWVRQAPGKRPEWVSAINSGGGSTYYADSVKGRFTISRDNAKNTLYLQMNSLKPEDTAVYYCATDEDYALGPNEYDYYGQGTQVTVSS
notes: as for B1
Consider B2, for which, in experiment [1], the “block of degranulation” value was over 95%. Also, in experiment [2], the “% inhibition at 250 nM Nanobody” value worked out at 88.1% and the half-maximal inhibitory concentration (IC50) is 0.584 nM. In addition, in experiment [3], the “% inhibition by 500 nM Nanobody” value came to 98.6% and the IC50 came to 2.96 nM.

B3: Nanobody 42D7 (VHH)
VHH: EVQLVESGGGLVQPGGPLRLSCAASGFTFGSYDMSWVRQAPGKGPEWVSSIDTGGDITHYADSVKGRFTISRDNANNMLYLQMNSLKPEDTAVYWCATDEDYALGPNEYDYYGQGTQVTVSS
notes: as for B1
For the molecule B3, in experiment [2], the “% inhibition at 250 nM Nanobody” value was 92.7% and the IC50 is 0.127 nM. In experiment [3], the “% inhibition by 500 nM Nanobody” value turned out to be 99.6% and the IC50 stood at 0.959 nM.

B4: Nanobody 39D8 (VHH)
VHH: EVQLVESGGGLVQPGGSLRLSCAASGFTFGSYDMSWVRQAPGKGPEWVSSIDTGGDITHYADSVKGRFTISRDNANNMLYLQMNSLKPGDTAVYWCATDEDYALGPNEYDYYGQGTQVTVSS
notes: also called 39D08; not shown: C-terminal c-myc tag and His6 tag
Regarding B4, in experiment [1], the “block of degranulation” value is over 95%. In experiment [2], the “% inhibition at 250 nM Nanobody” value was determined as 93.6% and the 50% inhibitory concentration (IC50) stood at 0.0742 nM. Further, in experiment [3], the “% inhibition by 500 nM Nanobody” value turned out to be 99.4% and the concentration for half-maximal inhibition (IC50) was 0.55 nM.

B5: Nanobody 42G5 (VHH)
VHH: EVQLVESGGGLVRPGGSLRLSCAASGFTFGNYDMSWVRQAPGKGPEWVSSIDTGGDITHYADPVKGRFTISRDNAANTLYLQMNSLKPEDTAVYYCATDEDYALGPNEYDYYGQGTQVTVSS
notes: as for B1
As for B5, in experiment [2], the “% inhibition at 250 nM Nanobody” value worked out at 91.2% and the IC50 was 0.96 nM. In experiment [3], the “% inhibition by 500 nM Nanobody” value was found to be 98.1% and the concentration for half-maximal inhibition (IC50) stood at 8.38 nM.

B6: Nanobody 39B2 (VHH)
VHH: EVQLVESGGGLVQPGGSLRLSCAASGFTFGSYDMSWVRQAPGKGPEWVSAINSGGGSTYYADSVKGRFTISRDNAKNTLYLQMNSLKPEDTAVYYCSTDLGPWIEGTMEEYEYEYWGQGTQVTVSS
notes: also called 39B02; not shown: C-terminal c-myc tag and His6 tag
As to B6, in experiment [4], the “fold less potent (against 39D11, 36G5 and Reference Fab)” value amounted to 10 fold. In experiment [1], the “block of degranulation” value came out at 25%. Besides, in experiment [3], the “% inhibition by 500 nM Nanobody” value was found to be 69.3% and the IC50 stood at 39.4 nM.

For orientation: % inhibition means the drop in the measured response relative to a control, in per cent. The low end stands for a response near the control, the high end for a response far below the control. Broadly, the IC50 is the concentration that inhibits the measured activity by half. The low end stands for greater potency, the high end for weaker potency.
